{"source": "paper PMC10204944", "about": "“Development and characterization of nanobodies that specifically target the oncogenic Phosphatase of Regenerating Liver-3 (PRL-3) and impact its interaction with a known binding partner, CNNM3” (PLOS ONE, 2023)", "binders": {"B1": {"name": "anti-PRL-3 nanobody 4 (VHH)", "VHH": "QVQLQESGGGLVQTGGSLRLSCAASQSTYNFDVMGWYRLAPGKQREFLTSITNGGNIYYADSVKGRFTIARDDSKTTMYLEMNSLKPEDTAVYTCYGQTHKPRVTTSWGQGTQVTVSS", "notes": "also called NB 4; source: E. coli One-Shot BL21 Star DE3 (pMES4), purified (Ni-NTA, Superdex 200); not shown: 6XHis, C-terminal, kept"}, "B2": {"name": "anti-PRL-3 nanobody 91 (VHH)", "VHH": "B1 VHH with Y29F", "notes": "91 is its standard; also called NB 91; nanobody 91-His; source: E. coli One-Shot BL21 Star DE3 (pMES4), purified (Ni-NTA, Superdex 200); not shown: 6XHis, C-terminal, kept"}, "B3": {"name": "anti-PRL-3 nanobody 16 (VHH)", "VHH": "B1 VHH with Y29F, I69T", "notes": "also called NB 16; source: E. coli One-Shot BL21 Star DE3 (pMES4), purified (Ni-NTA, Superdex 200); not shown: 6XHis, C-terminal, kept"}, "B4": {"name": "anti-PRL-3 nanobody 19 (VHH)", "VHH": "QVQLQESGGGLVQAGGSLGLSCAASRSIFNFKVMGWYRQAPGKQRELVASITNSDNTYYADSVKGRFTISREDAKTTMYLEMNSLKPEDTAVYRCYGQNWGLRATTYWGQGTQVTVSS", "notes": "also called NB 19; source: E. coli One-Shot BL21 Star DE3 (pMES4), purified (Ni-NTA, Superdex 200); not shown: 6XHis, C-terminal, kept"}, "B5": {"name": "anti-PRL-3 nanobody 84 (VHH)", "VHH": "B4 VHH with A91T", "notes": "also called NB 84; source: E. coli One-Shot BL21 Star DE3 (pMES4), purified (Ni-NTA, Superdex 200); not shown: 6XHis, C-terminal, kept"}, "B6": {"name": "anti-PRL-3 nanobody 26 (VHH)", "VHH": "QVQLQESGGGLVQPGGSLKLSCVVTGLHYYTEGWFRQAPGKEREGVSCISSSDGRTDYIDSVKGRFTISEDNDNKTVYLQMNTLKPDDTGVYYCVAERGPRGSTWWETYDYWGQGTHVTVSS", "notes": "also called NB 26; nanobody 26-His; source: E. coli One-Shot BL21 Star DE3 (pMES4), purified (Ni-NTA, Superdex 200); not shown: 6XHis, C-terminal, kept"}}, "note": "Changes are numbered by the printed parent chain.", "data": [{"biological_target": "T1, recombinant PRL-3 (Phosphatase of Regenerating Liver-3) (Homo sapiens, UniProt O75365)", "T1 construct": "Phosphatase of Regenerating Liver-3 (PRL-3), human cDNA amplified with gene-specific primers and cloned into pSKB3 (NheI/XhoI); also called apo PRL-3; PTP4A family member; source: E. coli One-Shot BL21 Star DE3, purified (Ni-NTA, TEV cleavage, Superdex 200); not shown: 6XHis, N-terminal, cleaved", "T1 sequence (O75365 1-169)": "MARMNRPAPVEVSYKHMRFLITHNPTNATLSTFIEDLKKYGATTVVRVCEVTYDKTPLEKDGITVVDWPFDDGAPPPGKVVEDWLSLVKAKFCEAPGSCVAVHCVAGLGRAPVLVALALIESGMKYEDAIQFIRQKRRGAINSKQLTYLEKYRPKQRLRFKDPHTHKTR", "experiment": "BLI; BLItz; nanobody (626.57 nM) loaded on Anti-Penta-HIS (HIS1K) biosensors; PRL-3 as analyte at six concentrations; association 5 min, dissociation 2 min; 1X kinetics buffer; global fit", "conditions": "both partners purified", "units": {"Kd": "µM", "koff": "s⁻¹", "kon": "M⁻¹ s⁻¹"}, "values": [{"binder": "B1", "Kd": 0.202, "koff": 0.000565, "kon": 2750}, {"binder": "B2", "Kd": 0.203, "koff": 0.00139, "kon": 6880}, {"binder": "B3", "Kd": 0.299, "koff": 0.000624, "kon": 2090}, {"binder": "B4", "Kd": 0.0984, "koff": 0.000386, "kon": 3920}, {"binder": "B5", "Kd": 0.101, "koff": 0.000332, "kon": 3280}, {"binder": "B6", "Kd": 0.0289, "koff": 0.000127, "kon": 4380}]}]}
